Holding throughout (assay): cell-based or functional assay
Assay [1] concerns the target T1, Factor G β-subunit βC2 (Limulus polyphemus).
T1 sequence: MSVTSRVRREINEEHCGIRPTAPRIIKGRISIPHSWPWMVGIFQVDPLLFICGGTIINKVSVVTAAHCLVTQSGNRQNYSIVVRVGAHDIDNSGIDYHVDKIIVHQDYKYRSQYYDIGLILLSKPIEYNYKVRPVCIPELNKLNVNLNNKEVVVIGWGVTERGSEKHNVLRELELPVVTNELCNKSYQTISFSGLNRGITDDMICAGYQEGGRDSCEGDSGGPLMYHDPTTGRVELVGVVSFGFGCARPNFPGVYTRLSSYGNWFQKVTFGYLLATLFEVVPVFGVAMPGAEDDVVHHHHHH

Assay [2] has as its target T2, Factor G β-subunit βi2 (Limulus polyphemus).
T2 sequence: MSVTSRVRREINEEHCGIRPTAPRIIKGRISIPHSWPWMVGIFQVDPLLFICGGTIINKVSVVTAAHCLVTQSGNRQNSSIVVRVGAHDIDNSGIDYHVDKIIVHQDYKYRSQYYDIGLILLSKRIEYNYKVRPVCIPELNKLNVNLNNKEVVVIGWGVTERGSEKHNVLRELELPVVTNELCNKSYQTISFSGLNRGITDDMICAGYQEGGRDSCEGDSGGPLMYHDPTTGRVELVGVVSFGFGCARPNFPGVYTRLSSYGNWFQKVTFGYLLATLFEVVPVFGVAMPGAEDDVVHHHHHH

Assay [3] concerns the target T3, Factor G β-subunit βi3 (Limulus polyphemus).
T3 sequence: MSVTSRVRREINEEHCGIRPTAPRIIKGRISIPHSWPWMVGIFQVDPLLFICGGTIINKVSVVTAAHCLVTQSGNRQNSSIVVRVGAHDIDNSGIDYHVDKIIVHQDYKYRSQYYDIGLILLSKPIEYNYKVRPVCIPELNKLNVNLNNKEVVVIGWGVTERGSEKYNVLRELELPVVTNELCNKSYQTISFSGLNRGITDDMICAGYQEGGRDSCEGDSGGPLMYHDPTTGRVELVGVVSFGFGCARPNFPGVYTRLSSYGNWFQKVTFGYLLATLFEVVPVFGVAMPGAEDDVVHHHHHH

Assay [4] addresses T4, Factor G β-subunit β5 (Limulus polyphemus).
T4 sequence: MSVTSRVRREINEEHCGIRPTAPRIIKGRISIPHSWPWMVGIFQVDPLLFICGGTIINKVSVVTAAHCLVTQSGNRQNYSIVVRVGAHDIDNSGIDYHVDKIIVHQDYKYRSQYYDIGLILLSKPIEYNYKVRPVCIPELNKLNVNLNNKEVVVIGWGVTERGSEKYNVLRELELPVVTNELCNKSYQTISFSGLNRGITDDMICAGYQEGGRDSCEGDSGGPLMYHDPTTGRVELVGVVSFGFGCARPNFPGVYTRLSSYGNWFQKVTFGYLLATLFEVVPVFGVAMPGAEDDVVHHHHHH

Assay [5] has as its target T5, Factor G β-subunit β2 (Limulus polyphemus).
T5 sequence: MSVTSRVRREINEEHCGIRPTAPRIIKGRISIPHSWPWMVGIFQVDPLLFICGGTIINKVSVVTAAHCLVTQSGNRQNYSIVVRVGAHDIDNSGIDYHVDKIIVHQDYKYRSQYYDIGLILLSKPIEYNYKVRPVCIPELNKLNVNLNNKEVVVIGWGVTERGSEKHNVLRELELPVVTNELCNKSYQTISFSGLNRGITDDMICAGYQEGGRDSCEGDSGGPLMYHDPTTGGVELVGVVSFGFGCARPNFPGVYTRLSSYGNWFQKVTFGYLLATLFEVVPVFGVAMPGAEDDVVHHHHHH

The target in assay [6] is T6, Factor G β-subunit βC1 (Limulus polyphemus).
T6 sequence: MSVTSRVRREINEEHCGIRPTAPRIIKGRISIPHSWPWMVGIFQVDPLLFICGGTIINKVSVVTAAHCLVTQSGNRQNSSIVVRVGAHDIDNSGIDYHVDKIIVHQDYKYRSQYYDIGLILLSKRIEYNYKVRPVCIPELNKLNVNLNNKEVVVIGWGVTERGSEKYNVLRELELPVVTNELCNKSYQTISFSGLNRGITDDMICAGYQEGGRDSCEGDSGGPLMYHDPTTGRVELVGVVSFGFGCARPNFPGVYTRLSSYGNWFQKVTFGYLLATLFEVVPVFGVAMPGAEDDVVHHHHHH

The target of assay [7] is T7, Tachypleus Factor G β-subunit (Tachypleus (paragraph 383 prints 'Tachypleus polyphemus'; paragraph 8 prints Tachypleus tridentatus)) (UniProt Q27083).
T7 sequence (looked up): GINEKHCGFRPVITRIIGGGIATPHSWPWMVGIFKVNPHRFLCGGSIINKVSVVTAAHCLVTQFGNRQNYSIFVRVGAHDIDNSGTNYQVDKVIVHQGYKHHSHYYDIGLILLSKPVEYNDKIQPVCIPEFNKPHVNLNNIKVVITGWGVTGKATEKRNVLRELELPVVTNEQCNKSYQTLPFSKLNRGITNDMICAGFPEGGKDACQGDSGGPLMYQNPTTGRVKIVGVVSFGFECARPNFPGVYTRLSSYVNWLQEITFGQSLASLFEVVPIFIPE

In US20220306705A1 one finds glucan-dependent protease activity of the coexpressed product: blank difference in absorbance (405 nm / 492 nm) with vs without LNT; grade A >0.1, B <=0.1 and >0.01, C <=0.01 and >0, D =0 (absorbance difference) and glucan-dependent protease activity of the coexpressed product: blank difference in absorbance (405 nm / 492 nm) with vs without LNT; grade D = blank difference equal to 0 (legend given for Table 13) (absorbance difference) data, which are given here for four molecules.

B1: Factor G α-subunit B (protein)
chain: TNWKLVWSDEFTNGISSDWEFETGNGPNGWGNNELQYYRRENARVEGGKLIITAKKEDYEGFRYTSAKLKTQFNKPWKDGKIEARMSIPSFRGVWVAFWMLGDITDTDSWPSSGEIDFKEHINTNNEVRGTIHWSTSDGAHTHHGRGTNTDYHIYSVEWNSSVIRWFVDGNQYFEVNIQRGATGTNAFHNKVFVILNMAIGGNWPGFNVADEAFPANMYVDYVRVYQDANTPSPVDVDVTDLSGYYFLQNRHSELYLDVSFSSNKDGAFLQQWPYNGNANQQFDFVHLGNNIYKITNKNSGKSLDVYNVGTENGVRIQQMPYRGSYNQQFIVQDVGDGYYKIFARNSRKLVEVADFNKDPGGKIQQWSDDGQISGQWKLIRNKVNSKVIQAESYFASLGVQLEDTSDVGGGKNVKCDTEGAWMAYKDINFPSSGSYQVEYRVASERAGGKLSLDLNAGSIVLGMLNVPSTGGWQKWTTISHTVKVDSGTYNLGIYVQRPRWNINWIKITEAPGQSKPIQRSDTDSKVIQAESYFASSKVQLEDTSDVGGGKNVKCDNEGAWMAYKDINFPSSGSYQIEYRVASERAGGKLSLDLNAGSIVLGMLDVPSTGGWQKWTTISHTVNVSSGTYNLGIYVQRAAWNINWIKITKV
With B1, the glucan-dependent protease activity of the coexpressed product: blank difference in absorbance (405 nm / 492 nm) with vs without LNT; grade A >0.1, B <=0.1 and >0.01, C <=0.01 and >0, D =0 (absorbance difference) is under 0.1 in assay [1]; 0 in assay [2]; under 0.01 in assay [3]; 0 in assay [4]; 0.1 in assay [5]; 0 in assay [6].

B2: Tachypleus Factor G α-subunit (protein)
chain: SHEPKWQLVWSDEFTNGISSDWEFEMGNGLNGWGNNELQYYRRENAQVEGGKLVITAKREDYDGFKYTSARLKTQFDKSWKYGKIEAKMAIPSFRGVWVMFWMSGDNTNYVRWPSSGEIDFIEHRNTNNEKVRGTIHWSTPDGAHAHHNRESNTNGIDYHIYSVEWNSSIVKWFVNGNQYFEVKIQGGVNGKSAFRNKVFVILNMAIGGNWPGFDVADEAFPAKMYIDYVRVYQDASTSSPVGDTSLDGYYFVQNRHSELYLDVTDASNEDGAFLQQWSYSGNENQQFDFEHLENNVYKITNKKSGKSLDVYNFGTENGVRIQQWSYGGARNQQFTVQSVGDGYYKIIPRGSGKLVEVADFSKDAGGKIQQWSDNNQLSGQWKLIKSKSYSKLIQAESYFDSSKVQLEDTSDVGGGKNVKCDNEGAWMAYKDIDFPSSGNYRIEYRVASERAGGKLSLDLNAGSIVLGMLDVPSTGGWQKWTTISHTVNVDSGTYNLGIYVQRASWNINWIKITKIPEQSNLNQGRRNSKLIQAESYFSYSEVQLEDTLDVGGGKNVKCDKEGAWMAYKDIDFPSSGSYRVEYRVASERAGGKLSLDLNAGSIVLGMLDIPSTGGLQKWTTISHIVNVDLGTYNLGIYVQKASWNINWIRITKV
In turn, B2 gave a glucan-dependent protease activity of the coexpressed product: blank difference in absorbance (405 nm / 492 nm) with vs without LNT; grade D = blank difference equal to 0 (legend given for Table 13) (absorbance difference) in assay [7] of 0.

B3: Factor G α-subunit A (protein)
chain: EPKWKLVWSDEFTNGISSDWEFETGNGPNGWGNNELQYYRRENTRVEGGKLIITAKEEDYEGFRYTSAKLKTQFNKPWKDGKIEARMSIPSFRGVWVAFWMLGDITDTDSWPSSGEIDFEEHINTNNEVRGTIHWSTSDDADTLHGRGTNTDYHIYSVEWNSSVIRWFVDGNQYFEVNIQRGATGTNAFHNNVFVILNMAIGGNWPGFNVADEAFPANMYVDYVRVYQDANTPSPVDVTHLSGYYFLQNRHSELYLDVSGSSNEDGAFLQQWPYSGNANQQFDFVHLGNKVYKIINKNSGKSLDVYELGTDNGVRIQQWSYGGGYNQQFIVQDVGDGYYKIFARSTGKLVEVADLNKDPGGKIQQWSDDGQLSGQWKLIRNKANSKLIQAESYFASSKVQLEDTSDVGGGKNVKCDNEGAWMAYKDINFPSSGTYQVEYRVASERAGGMLSLDLNAGSIVLGMLNVPSTGGLQKWTTISHTVNVSSGTYNLGISVQRPGWNINWINITKVSSQLKSIPSTNSRVIQAESYFDSSKVQLEDTSDVGGGKNVKCDTKGAWMAYKDINFPSSGSYQIEYRVASERAGGKLSLDLNAGSIVLGMLDVPSTGGWQKWTTISHTVKVDSGTYNLGIYVQQPGWNINWIKITKV
Regarding B3, the glucan-dependent protease activity of the coexpressed product: blank difference in absorbance (405 nm / 492 nm) with vs without LNT; grade A >0.1, B <=0.1 and >0.01, C <=0.01 and >0, D =0 (absorbance difference) in assay [1] was under 0.01; in assay [2], 0.1; in assay [3] it was 0.1; in assay [4], under 0.1; in assay [5], under 0.01; in assay [6], under 0.1.

B4: Factor G α-subunit (AB547712) derived from Limulus polyphemus (protein)
chain: SQEPKWKLVWSDEFTNGISSDWEFETGNGPNGWGNNELQYYRRENTRVEGGKLIITAKEEDYEGFRYTSAKLKTQFNKPWKDGKIEARMSIPSFRGVWVAFWMLGDITDTDSWPSSGEIDFEEHINTNNEVRGTIHWSTSDDADTLHGRGTNTDYHIYSVEWNSSVIRWFVDGNQYFDVNIQRGATGTNAFHNNVFVILNMAIGGNWPGFNVADEAFPANMYVDYVRVYQDANTPSPVDVTHLSGYYFLQNRHSELYLDVSGSSNEDGAFLQQWPYSGNANQQFDFVHLGNKVYKIINKNSGKSLDVYELGTDNGVRIQQWSYGGGYNQQFIVQDVGDGYYKIFARSTGKLVEVADLNKDPGGKIQQWSDDGQLSGQWKLIRNKANSKLIQAESYFASSKVQLEDTSDVGGGKNVKCDNEGAWMAYKDINFPSSGTYQVEYRVASERAGGMLSLDLNAGSIVLGMLNVPSTGGLQKWTTISHTVNVSSGTYNLGISVQRPGWNINWINITKVSSQLKSIPSTNSRVIQAESYFDSSKVQLEDTSDVGGGKNVKCDTKGAWMAYKDINFPSSGSYQIEYRVASERAGGKLSLDLNAGSIVLGMLDVPSTGGWQKWTTISHTVKVDSGTYNLGIYVQQPGWNINWIKITKV
For the molecule B4, the glucan-dependent protease activity of the coexpressed product: blank difference in absorbance (405 nm / 492 nm) with vs without LNT; grade A >0.1, B <=0.1 and >0.01, C <=0.01 and >0, D =0 (absorbance difference) in assay [1], in assay [2], in assay [3], in assay [4], in assay [5] and in assay [6] was 0 each time.
